Results: patent US20250269025A1 (AVENCELL THERAPEUTICS, published 2025)
No end group written: not given here.

Key:
[1] = biological target: T1, CD123 on CD123 positive AML cells (Oci-AML3, Molm-13, MV4-11, primary AML cells) (human, UniProt P26951 19-378); test: cellular binding assay per table caption, Molm-13 cells
T1 construct: whole, on cells; Endogenous CD123 on human AML cell lines; also called target antigen CD123

[2] = biological target: T1, CD123 on CD123 positive AML cells …; test: cellular binding assay per table caption, Oci-AML3 cells
[3] = biological target: T2, La epitope 5B9 (SEQ ID No. 28) fused to human Fc domain (human, also: fused to human Fc domain, order, isotype, linker not given here); test: SPR, Biacore X100, La epitope 5B9-human Fc on CM5 chip; KD 5B9 (second number of the cell)
T2 construct: Coupled to a CM5 sensor chip; not shown: human Fc domain
T2 chain: KPLPEVTDEY
Experimental: Furthermore, binding of different variants of the targeting module according to the invention was analyzed using the La epitope 5B9 (SEQ ID No. 28) fused to human Fc domain which was coupled to a CM5 sensor chip on a Biacore X100 device (FIG. 3). The targeting modules were purified monomers. The targeting modules were concentrated between 2.47 to 200 nM and measured in technical duplicates. For data fitting and KD calculation a two-state-reaction binding model was applied.

human CD123-Fc = biological target: T3, human CD123-Fc (human, UniProt P26951 19-305, limits assumed); test: SPR, Biacore X100, human CD123-Fc on CM5 chip, 1:1 model; KD CD123 (first number of the cell)
T3 construct: Coupled to a CM5 sensor chip; also called soluble recombinant CD123; not shown: Fc part
T3 sequence (looked up): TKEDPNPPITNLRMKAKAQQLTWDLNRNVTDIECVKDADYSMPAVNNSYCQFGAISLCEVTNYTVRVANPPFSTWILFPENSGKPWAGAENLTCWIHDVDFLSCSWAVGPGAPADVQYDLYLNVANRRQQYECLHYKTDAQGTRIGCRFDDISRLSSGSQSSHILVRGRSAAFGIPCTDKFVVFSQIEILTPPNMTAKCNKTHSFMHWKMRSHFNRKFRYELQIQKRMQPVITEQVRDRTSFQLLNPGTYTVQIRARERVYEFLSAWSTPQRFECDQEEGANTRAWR
Experimental: Binding of different variants of the targeting module according to the invention was analyzed by SPR measurements using human CD123-Fc coupled to a CM5 sensor chip on a Biacore X100 device (FIG. 2). Targeting modules were purified monomer except for the targeting module according to SEQ ID No. 8. […] For data fitting and KD calculation a 1:1 binding model was applied.

- EC50 [1]: 0.0071 nM
- EC50 [2]: 0.026 nM
- Kd [3]: 3.4 nM
- Kd (human CD123-Fc): 5.2 nM
B1: targeting module according to SEQ ID No. 4 (bispecific antibody)
chain: GQVQLVQSGAEVKKPGASVKMSCKASGYTFTDYYMKWVKQAPGQGLEWIGDIIPSNGATFYNQKFQGRATLTVDTSTSTAYMELSSLRSEDTAVYYCTRSHLLRASWFAYWGQGTLVTVSSASGGGGSGGGGSGGGGSDIVMTQSPDSLAVSLGERATINCKSSQSLLNSGNQKNYLTWYLQKPGQPPKLLIYWASTRESGVPDRFSGSGSGTDFTLTISSVQAEDVAVYYCQNDYSYPYTFGGGTKLEIKAAARGDIVMTQSPDSLAVSLGERVTMNCKSSQSLLNSRTPKNYLAWYQQKPGQSPKLLIYWASTRKSGVPDRFSGSGSGTDFTLTISSVQAEDVAVYYCKQSYNLLTFGGGTKLEIKGGGGSGGGGSGASAAGGGGSGGGGSQVQLVESGAEVVKPGASVKLSCKASGYAFTHYYIYWIKQAPGQGLEWIGGVNPSNGGTHFNEKFKSRATLTVDTSISTAYMELSRLRSDDTAVYYCTRSEYDYGLGFAYWGQGTLVTVSSGGGGSHHHHHHHH
notes: also called huCD123_2 + rs5B9-VLVH
